{"source": "paper PMC5148590", "key": {"[1]": {"biological_target": "Photobacterium profundum α-carbonic anhydrase (Photobacterium profundum SS9)", "assay": "non-reducing SDS-PAGE with protonography; purified PprCA in Laemmli loading buffer without 2-mercaptoethanol, 12% SDS gel, stained with Coomassie blue or by in-gel CO2 hydratase activity (bromothymol blue)"}, "[2]": {"biological_target": "Photobacterium profundum α-carbonic anhydrase (Photobacterium profundum SS9)", "assay": "SEC; Hiprep 16/60 Sephacryl S-200 equilibrated with 20 mM Tris pH 7.5 and 150 mM NaCl; dimer to monomers"}}}
{"substance": "Photobacterium profundum α-carbonic anhydrase (enzyme)", "values": [{"measurement": "stoichiometry N", "setting": "[1]", "value": 2}, {"measurement": "stoichiometry N", "setting": "[2]", "value": 2}]}
